Measurements taken from the supplement of paper PMC9112550, “Optimization of the antimicrobial peptide Bac7 by deep mutational scanning” (BMC Biology, 2022).

Tested on: Escherichia coli TOP10
Experiment: shrunken log2 fold change of peptide-encoding DNA abundance (4.5 h post-induction vs induction); higher = less antimicrobial activity (less host growth inhibition)
Conditions: time post-induction: 4.5 h; library: site-saturation at positions 5, 18, 19, 20
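Note: peptides expressed intracellularly from a pBAD plasmid library in pooled LB shake-flask culture, induced with 0.3% L-arabinose, DNA abundance read by NGS, three biological replicates, DESeq2 with apeglm shrinkage.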

Row | Sequence | shrunken log2 fold change
1 | RRIRARPPRLPRPRPRPAAWPRP | 0.613
2 | RRIRQRPPRLPRPRPRPLIFPRP | -0.432
3 | RRIRKRPPRLPRPRPRPAMGPRP | 0.14
4 | RRIRLRPPRLPRPRPRPCLDPRP | -0.0475
5 | RRIRPRPPRLPRPRPRPNLAPRP | 0.294
6 | RRIRQRPPRLPRPRPRPSHCPRP | 0.0811
7 | RRIRTRPPRLPRPRPRPNVRPRP | 0.075
8 | RRIRARPPRLPRPRPRPVTYPRP | -0.265
9 | RRIRHRPPRLPRPRPRPFILPRP | -0.675
10 | RRIRGRPPRLPRPRPRPRPKPRP | 1.41
11 | RRIRFRPPRLPRPRPRPPPMPRP | 1.17
12 | RRIRCRPPRLPRPRPRPNGSPRP | -0.398
13 | RRIRFRPPRLPRPRPRPTYIPRP | -0.434
14 | RRIRPRPPRLPRPRPRPDGKPRP | 0.25
15 | RRIRNRPPRLPRPRPRPLVIPRP | -0.432
16 | RRIRIRPPRLPRPRPRPRAGPRP | 1.6
17 | RRIRVRPPRLPRPRPRPHYSPRP | -0.424
18 | RRIRHRPPRLPRPRPRPSCYPRP | -1.1
19 | RRIRYRPPRLPRPRPRPDSEPRP | -0.0121
20 | RRIRIRPPRLPRPRPRPYIQPRP | -1.75
21 | RRIRSRPPRLPRPRPRPWFQPRP | -0.246
22 | RRIRERPPRLPRPRPRPTNFPRP | -0.00437
23 | RRIRFRPPRLPRPRPRPPWTPRP | 0.123
24 | RRIRGRPPRLPRPRPRPRNHPRP | 0.563
25 | RRIRARPPRLPRPRPRPCNSPRP | -0.0983

Row | Sequence | shrunken log2 fold change
26 | RRIRRRPPRLPRPRPRPQAKPRP | 0.418
27 | RRIRTRPPRLPRPRPRPPAVPRP | 0.292
28 | RRIRERPPRLPRPRPRPMAMPRP | 0.0346
29 | RRIRIRPPRLPRPRPRPALDPRP | 1.45
30 | RRIRARPPRLPRPRPRPITQPRP | -0.0161
31 | RRIRCRPPRLPRPRPRPYTFPRP | -0.883
32 | RRIRDRPPRLPRPRPRPPDTPRP | 0.662
33 | RRIRRRPPRLPRPRPRPWESPRP | 0.0904
34 | RRIRIRPPRLPRPRPRPPRQPRP | 0.337
35 | RRIRCRPPRLPRPRPRPGYWPRP | 0.196
36 | RRIRCRPPRLPRPRPRPKMVPRP | -0.0546
37 | RRIRDRPPRLPRPRPRPTLNPRP | 0.171
38 | RRIRRRPPRLPRPRPRPTKEPRP | -0.0782
39 | RRIRVRPPRLPRPRPRPACRPRP | -0.132
40 | RRIRIRPPRLPRPRPRPEPWPRP | 0.39
41 | RRIRMRPPRLPRPRPRPKPSPRP | 1.4
42 | RRIRLRPPRLPRPRPRPPYNPRP | -0.689
43 | RRIRSRPPRLPRPRPRPQCCPRP | -0.312
44 | RRIRSRPPRLPRPRPRPYEDPRP | -0.129
45 | RRIRNRPPRLPRPRPRPRQFPRP | 0.0733
46 | RRIRYRPPRLPRPRPRPVKFPRP | -0.133
47 | RRIRSRPPRLPRPRPRPWRYPRP | -0.336
48 | RRIRMRPPRLPRPRPRPPWAPRP | 0.911
49 | RRIRWRPPRLPRPRPRPDMCPRP | 0.262
50 | RRIRERPPRLPRPRPRPGRVPRP | 0.195

Row | Sequence | shrunken log2 fold change
51 | RRIRRRPPRLPRPRPRPGQQPRP | 0.119
52 | RRIRDRPPRLPRPRPRPNGGPRP | -0.0647
53 | RRIRARPPRLPRPRPRPRITPRP | 0.173
54 | RRIRPRPPRLPRPRPRPRWVPRP | 0.164
55 | RRIRHRPPRLPRPRPRPYQHPRP | -0.0148
56 | RRIRIRPPRLPRPRPRPIWLPRP | -0.11
57 | RRIRDRPPRLPRPRPRPHLLPRP | 0.0253
58 | RRIRDRPPRLPRPRPRPLNIPRP | -0.161
59 | RRIRSRPPRLPRPRPRPNPFPRP | -0.236
60 | RRIRHRPPRLPRPRPRPELWPRP | 0.376
61 | RRIRRRPPRLPRPRPRPEWAPRP | 0.437
62 | RRIRCRPPRLPRPRPRPALAPRP | 0.475
63 | RRIRPRPPRLPRPRPRPYRPPRP | -0.257
64 | RRIRMRPPRLPRPRPRPEWTPRP | 0.749
65 | RRIRDRPPRLPRPRPRPPQWPRP | 0.568
66 | RRIRNRPPRLPRPRPRPADEPRP | -0.00151
67 | RRIRARPPRLPRPRPRPVWWPRP | 0.987
68 | RRIRHRPPRLPRPRPRPGIYPRP | 0.0151
69 | RRIRMRPPRLPRPRPRPYYMPRP | -0.0189
70 | RRIRLRPPRLPRPRPRPMNFPRP | -0.102
71 | RRIRCRPPRLPRPRPRPDHEPRP | -0.144
72 | RRIRQRPPRLPRPRPRPHERPRP | 0.158
73 | RRIRARPPRLPRPRPRPDSNPRP | 0.179
74 | RRIRCRPPRLPRPRPRPHFMPRP | -0.774
75 | RRIRTRPPRLPRPRPRPDFGPRP | -0.0474

Row | Sequence | shrunken log2 fold change
76 | RRIRKRPPRLPRPRPRPMNNPRP | -0.0152
77 | RRIRIRPPRLPRPRPRPKCKPRP | -1.21
78 | RRIRNRPPRLPRPRPRPFRTPRP | -0.066
79 | RRIRPRPPRLPRPRPRPDFLPRP | -0.235
80 | RRIRGRPPRLPRPRPRPGGWPRP | 1.58
81 | RRIRERPPRLPRPRPRPGTWPRP | -0.0304
82 | RRIRLRPPRLPRPRPRPMPHPRP | 0.0155
83 | RRIRPRPPRLPRPRPRPKWMPRP | -0.158
84 | RRIRARPPRLPRPRPRPKAHPRP | 0.491
85 | RRIRWRPPRLPRPRPRPDMYPRP | -0.389
86 | RRIRERPPRLPRPRPRPADRPRP | -0.173
87 | RRIRQRPPRLPRPRPRPEQTPRP | 0.0148
88 | RRIRTRPPRLPRPRPRPDMWPRP | -0.126
89 | RRIRKRPPRLPRPRPRPGGVPRP | 0.656
90 | RRIRMRPPRLPRPRPRPPCCPRP | 0.928
91 | RRIRHRPPRLPRPRPRPRMCPRP | -0.0257
92 | RRIRWRPPRLPRPRPRPQFIPRP | -0.211
93 | RRIRDRPPRLPRPRPRPGHKPRP | 0.00794
94 | RRIRGRPPRLPRPRPRPCFGPRP | 0.262
95 | RRIRARPPRLPRPRPRPHNDPRP | -0.34
96 | RRIRGRPPRLPRPRPRPVAHPRP | 0.548
97 | RRIRWRPPRLPRPRPRPTITPRP | -0.335
98 | RRIRSRPPRLPRPRPRPLHRPRP | -0.216
99 | RRIRDRPPRLPRPRPRPYVWPRP | -0.579
100 | RRIRSRPPRLPRPRPRPQVGPRP | -0.175

Row | Sequence | shrunken log2 fold change
101 | RRIRNRPPRLPRPRPRPCWDPRP | 0.125
102 | RRIRCRPPRLPRPRPRPAYWPRP | 0.293
103 | RRIRVRPPRLPRPRPRPVIYPRP | -0.39
104 | RRIRQRPPRLPRPRPRPCCSPRP | -0.0854
105 | RRIRWRPPRLPRPRPRPSRPPRP | 0.402
106 | RRIRFRPPRLPRPRPRPQGNPRP | 0.311
107 | RRIRQRPPRLPRPRPRPHSHPRP | 0.0496
108 | RRIRFRPPRLPRPRPRPSKNPRP | -0.519
109 | RRIRRRPPRLPRPRPRPIVSPRP | -0.221
110 | RRIRMRPPRLPRPRPRPFFEPRP | 0.597
111 | RRIRHRPPRLPRPRPRPKHQPRP | -0.195
112 | RRIRIRPPRLPRPRPRPPIYPRP | -0.592
113 | RRIRCRPPRLPRPRPRPNIRPRP | -0.517
114 | RRIRGRPPRLPRPRPRPFSKPRP | 0.164
115 | RRIRGRPPRLPRPRPRPYKQPRP | 0.025
116 | RRIRERPPRLPRPRPRPCDFPRP | -0.502
117 | RRIRGRPPRLPRPRPRPQNWPRP | 0.0915
118 | RRIRQRPPRLPRPRPRPSLRPRP | 0.239
119 | RRIRFRPPRLPRPRPRPKCYPRP | -0.233
120 | RRIRFRPPRLPRPRPRPSEFPRP | -0.301
121 | RRIRNRPPRLPRPRPRPYCFPRP | -0.516
122 | RRIRWRPPRLPRPRPRPGSYPRP | -0.0955
123 | RRIRFRPPRLPRPRPRPMKDPRP | -0.47
124 | RRIRLRPPRLPRPRPRPNVSPRP | -0.0595
125 | RRIRERPPRLPRPRPRPWHYPRP | -0.067

Row | Sequence | shrunken log2 fold change
126 | RRIRCRPPRLPRPRPRPCISPRP | -0.582
127 | RRIRTRPPRLPRPRPRPPWRPRP | 0.747
128 | RRIRKRPPRLPRPRPRPLYWPRP | 0.149
129 | RRIRHRPPRLPRPRPRPGQSPRP | -0.0176
130 | RRIRVRPPRLPRPRPRPHVGPRP | 0.0858
131 | RRIRMRPPRLPRPRPRPYYRPRP | 0.0143
132 | RRIRWRPPRLPRPRPRPNMSPRP | -0.00987
133 | RRIRPRPPRLPRPRPRPAKPPRP | 0.196
134 | RRIRLRPPRLPRPRPRPSLEPRP | -0.209
135 | RRIRDRPPRLPRPRPRPTDTPRP | 0.146
136 | RRIRWRPPRLPRPRPRPYMNPRP | -1.44
137 | RRIRLRPPRLPRPRPRPTQRPRP | 0.248
138 | RRIRMRPPRLPRPRPRPMIWPRP | 0.237
139 | RRIRMRPPRLPRPRPRPPWIPRP | 0.248
140 | RRIRVRPPRLPRPRPRPHGIPRP | 0.00955
141 | RRIRTRPPRLPRPRPRPINMPRP | -0.0135
142 | RRIRHRPPRLPRPRPRPQNKPRP | -0.654
143 | RRIRVRPPRLPRPRPRPYMMPRP | -0.00989
144 | RRIRIRPPRLPRPRPRPHVAPRP | -0.189
145 | RRIRTRPPRLPRPRPRPCWGPRP | -0.234
146 | RRIRGRPPRLPRPRPRPPDEPRP | 1.27
147 | RRIRGRPPRLPRPRPRPQCLPRP | 0.405
148 | RRIRPRPPRLPRPRPRPSGYPRP | -0.204
149 | RRIRERPPRLPRPRPRPQIHPRP | -0.835
150 | RRIRIRPPRLPRPRPRPCHRPRP | -0.452
